Where two headings read alike, the source gives them in different places.
Legend:
[1] = Biodistribution in LNCaP tumor-bearing CB-17 SCID mice; conditions: male, mouse, in vivo, iv, 0.2 nmol, total radioactivity, Biodistribution
From the text: Mice were used for experiments when tumors had grown to a diameter of 5–10 mm (3–6 wk after inoculation).
Selected organs were removed, weighed, and measured in a γ-counter.

[2] = Lipophilicity, n-octanol/PBS partition coefficient; type: physicochemical; conditions: pH 7.4
Description: Approximately 1 MBq of the labeled tracer was dissolved in 1 mL of a 1:1 mixture (v/v) of PBS (pH 7.4) and n-octanol in a reaction vial (n = 6). After vigorous mixing of the suspension for 3 min at r.t., the vial was centrifuged at 15,000g for 3 min (Biofuge 15, Heraus Sepatech), and 100 μL aliquots of both layers were measured in a γ-counter.

LNCaP cells [3] = assay: Internalization into LNCaP cells, normalized to (125I-I-BA)KuE; type: cell-based, human; conditions: LNCaP cells 1.25 x 10^5/well, 1 h, 37°C, ligand 0.5 nM/well; % of specific internalization of (125I-I-BA)KuE; 68Ga-19F or 18F free-chelator form; mean ± SD, n = 3
Description: Internalization studies were carried out according to a previously published procedure (1). Briefly, LNCaP cells were harvested 24 ± 2 hours before the experiment and seeded in poly -L-lysine coated 24-well plates […]
After removal of the culture medium, the cells were washed once with 500 µL DMEM -F12 (5% BSA) and left to equilibrate for at least 15 min at 37 °C in 200 µL DMEM-F12 (5% BSA). Each well was treated with either 25 µL of either DMEM-F12 (5% BSA, control) or 25 µL of a 100 µM PMPA (2-(Phosphonomethyl)-pentandioic acid, Tocris Bioscience, Bristol, UK) solution in PBS, for blockade. Next, 25 µL of the radioactive-labelled PSMA inhibitor (5.0 nM in PBS) was added and the cells were incubat ed at 37 °C for 60 min. The experiment was terminated by placing the 24 -well plate on ice for 3 min and consecutive removal of the medium. Each well was carefully washed with 250 µL of ice-cold HBSS. Both fractions from the first steps, representing the amount of free radioligand, were combined. Removal of surface bound activity was accomplished by incubation of the cells with 250 µL of ice-cold PMPA (10 µM in PBS) solution for 5 min […]
and rinsed again with another 250 µL of ice-cold PBS. The internalized activity was determined by incubation of the cells in 250 µL 1 M aqueous NaOH for at least 10 min. The obtained fractions were combined with those of the subsequent wash step with 250 µL 1 M aqueous NaOH. Each experiment (control and blockade) was performed in triplicate. Free, surface bound and internalized activity was quantified in a γ-counter. All internalization studies were accompanied by external reference studies, using […]
Data were corrected for non-specific

PSMA = target: T1, PSMA (Homo sapiens, UniProt Q04609); assay: Competitive binding (IC50) on LNCaP cells with (125I-I-BA)KuE as radioligand; conditions: LNCaP cells 1.5 x 10^5/well, 1 h, 4°C, (125I-I-BA)KuE 0.2 nM/well, HBSS 1% BSA; natGa-19F or 19F free-chelator form; mean ± SD, n = 3
T1 construct: PSMA-positive LNCaP cells (300265; Cell Lines Service) were cultivated; host or cells: LNCaP human prostate carcinoma cells
T1 sequence (Q04609 whole entry): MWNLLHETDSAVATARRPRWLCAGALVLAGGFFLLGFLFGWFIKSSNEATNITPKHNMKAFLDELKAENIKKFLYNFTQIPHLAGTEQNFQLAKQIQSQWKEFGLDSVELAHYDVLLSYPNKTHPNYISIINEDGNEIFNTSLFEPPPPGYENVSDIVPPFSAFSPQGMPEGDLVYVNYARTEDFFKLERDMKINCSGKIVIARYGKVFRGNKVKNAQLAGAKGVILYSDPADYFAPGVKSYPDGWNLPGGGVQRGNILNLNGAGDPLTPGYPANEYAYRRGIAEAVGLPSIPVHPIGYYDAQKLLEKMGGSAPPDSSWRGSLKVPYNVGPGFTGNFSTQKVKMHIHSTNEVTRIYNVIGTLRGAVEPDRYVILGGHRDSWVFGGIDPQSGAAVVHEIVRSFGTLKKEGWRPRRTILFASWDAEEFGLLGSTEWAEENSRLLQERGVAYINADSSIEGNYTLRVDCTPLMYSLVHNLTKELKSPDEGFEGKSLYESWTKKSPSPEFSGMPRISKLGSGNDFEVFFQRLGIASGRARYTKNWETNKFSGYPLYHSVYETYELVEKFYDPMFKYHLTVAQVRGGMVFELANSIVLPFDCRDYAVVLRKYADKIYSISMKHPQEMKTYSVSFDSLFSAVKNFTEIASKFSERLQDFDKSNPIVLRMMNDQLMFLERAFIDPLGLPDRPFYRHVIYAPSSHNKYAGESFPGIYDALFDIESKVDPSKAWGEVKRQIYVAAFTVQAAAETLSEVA
Description: Data were corrected for nonspecific binding and normalized to the specific-internalization observed for the radioiodinated reference compound (n = 3). […]
with water (10 mL). The purified product was eluted with 50% aqueous ethanol (2 mL), phosphate buffered saline (PBS, 1 mL) and again water (1 mL). After removing ethanol in vacuo, purity of the radiolabelled compounds was determined by radio-HPLC and radio-TLC (ITLC-SG chromatography paper, mobile phase: 0.1 M trisodium citrate and Silica gel 60 RP-18 F254s, mobile phase: 3:2 mixture (v/v) of MeCN in H2O supplemented with 10% of 2 M NaOAc solution and 1% of TFA).
6. Human Serum Albumin (HSA) Binding
HSA binding of the PSMA-addressing ligands was determined according to a previously published procedure via HPLC (7). A Chiralpak HSA column (50 x 3 mm, 5 μm, H13H-2433, Daicel, Tokyo, Japan) […]
literature, in the range of 13 to 99% (7,8). All substances, including the examined PSMA ligands, were […]
final concentration of 0.5 mg/mL.
(Northampton, United States).
Affinity determinations (IC50)
The PSMA affinity (IC50) determinations and synthesis of the radioiodinated reference ligand (((S)-1- […]
described previously (1). Briefly, the respective ligand was diluted (serial dilution 10-4 to 10-10) in Hank’s balanced salt solution (HBSS, Biochrom). […]
(1% BSA). […] Quantification of all collected fractions was accomplished in a γ - counter. […]

LNCaP cells [4] = conditions: 1 h, 37°C, % of (125I-I-BA)KuE, 18F reference ligands, mean ± SD, n = 3; cited from earlier work
From the text: page 20: 8. Supplemental Data 1 Supplemental Table 1.

[5] = tested on: LNCaP tumor-bearing male CB-17 SCID mice; conditions: 1 h p.i., mean ± SD, n = 4, cited from earlier work
Description: page 21: 9. Supplemental Data 2 Supplemental Table 2. Biodistribution of 68Ga-19F-rhPSMA-7 to 10, 18F-rhPSMA-7 and the reference ligands 18F-DCFPyL and 18F-PSMA-1007 at 1 h p.i. in LNCaP tumor-bearing SCID mice (n=3 for 68Ga-19F-rhPSMA-7 to 9, n=3 for 18F-rhPSMA-7, n=4 for 68Ga-19F-rhPSMA-10, 18F-DCFPyL and 18F-PSMA- 1007). Data for reference ligands were taken from a previously published study by our group (3). Values are expressed as a percentage of injected dose per gram (%ID/g), mean ± standard deviation. 18 18 68Ga-natF- 68Ga-natF- 68Ga-natF- 68Ga-natF- 18F-rhPSMA-7 Organ F-DCFPyL F-PSMA- ...

human serum albumin = target: T2, human serum albumin (Homo sapiens, UniProt P02768); conditions: affinity HPLC, Chiralpak HSA column; 19F reference ligands; cited from earlier work
T2 construct: purchased Daicel H13H-2433
T2 sequence (P02768 25-609): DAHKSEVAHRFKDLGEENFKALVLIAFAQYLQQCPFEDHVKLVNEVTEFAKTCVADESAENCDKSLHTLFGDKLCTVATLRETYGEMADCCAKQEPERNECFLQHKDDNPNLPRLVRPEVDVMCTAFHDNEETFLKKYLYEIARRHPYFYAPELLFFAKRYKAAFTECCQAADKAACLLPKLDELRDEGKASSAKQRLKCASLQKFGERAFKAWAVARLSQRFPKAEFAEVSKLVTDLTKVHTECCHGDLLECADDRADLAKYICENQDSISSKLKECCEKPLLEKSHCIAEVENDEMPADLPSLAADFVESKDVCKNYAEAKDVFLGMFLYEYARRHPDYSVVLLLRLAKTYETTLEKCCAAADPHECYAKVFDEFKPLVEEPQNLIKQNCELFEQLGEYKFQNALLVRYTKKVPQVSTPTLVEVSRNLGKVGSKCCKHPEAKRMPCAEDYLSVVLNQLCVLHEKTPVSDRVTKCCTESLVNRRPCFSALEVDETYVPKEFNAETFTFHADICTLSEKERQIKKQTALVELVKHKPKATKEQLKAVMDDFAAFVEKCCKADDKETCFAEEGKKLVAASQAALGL
Description: Binding to HSA was assessed by means of a recently described HPLC method (Fig. 3D) ([34]). […] Supplemental Data 1 Supplemental Table 1.

Molecule `CC(C)(C)[Si](F)(c1ccc(C(=O)NC[C@@H](NC(=O)CCC(C(=O)O)N2CCN(CC(=O)O)CCN(CC(=O)O)CCN(CC(=O)O)CC2)C(=O)N[C@H](CCCCNC(=O)CCC(=O)NCCC[C@@H](NC(=O)CC[C@H](NC(=O)N[C@@H](CCC(=O)O)C(=O)O)C(=O)O)C(=O)O)C(=O)O)cc1)C(C)(C)C` (some centres unmarked) [68/natGa-19/18F-rhPSMA-7, metal not drawn] has a tissue uptake at 1 h ([1]; Adrenals) of 6.7 ± 2.2 %ID/g, a tissue uptake at 1 h ([1]; Blood) of 1.9 ± 0.1 %ID/g and a tissue uptake at 1 h ([1]; Bone) of 0.52 ± 0.11 %ID/g. It also gave a tissue uptake at 1 h ([1]; Heart) of 1.2 ± 0.3 %ID/g, a tissue uptake at 1 h ([1]; Intestine) of 0.43 ± 0.07 %ID/g and a tissue uptake at 1 h ([1]; Kidneys) of 34.1 ± 6.6 %ID/g. For the same molecule, the tissue uptake at 1 h ([1]; Liver) was 0.77 ± 0.1 %ID/g, the tissue uptake at 1 h ([1]; Lung) was 1.7 ± 0.2 %ID/g and the tissue uptake at 1 h ([1]; Muscle) was 0.42 ± 0.22 %ID/g. It also gave a tissue uptake at 1 h ([1]; Pancreas) of 0.71 ± 0.11 %ID/g, a tissue uptake at 1 h ([1]; Spleen) of 13.8 ± 5 %ID/g and a tissue uptake at 1 h ([1]; Stomach) of 0.51 ± 0.07 %ID/g. For the same molecule, the tissue uptake at 1 h ([1]; Tumor) was 8.6 ± 0.2 %ID/g, the “Lipophilicity log PO/PBS” value [2] was “- 3.2 ± 0.05” and the Internalization (LNCaP cells [3]) was 126 ± 13 % of reference.
`CC(C)(C)[Si](F)(c1ccc(C(=O)NC[C@@H](NC(=O)CN2CCN(CC(=O)O)CCN(CC(=O)O)CCN(CC(=O)O)CC2)C(=O)N[C@H](CCCCNC(=O)CCC(=O)NCCC[C@@H](NC(=O)CC[C@H](NC(=O)N[C@@H](CCC(=O)O)C(=O)O)C(=O)O)C(=O)O)C(=O)O)cc1)C(C)(C)C` [68/natGa-19F-rhPSMA-10, metal not drawn] gave a tissue uptake at 1 h ([1]; Adrenals) of 2.2 ± 0.3 %ID/g, a tissue uptake at 1 h ([1]; Blood) of 1.5 ± 0.3 %ID/g and a tissue uptake at 1 h ([1]; Bone) of 0.35 ± 0.13 %ID/g. It also gave a tissue uptake at 1 h ([1]; Heart) of 0.75 ± 0.13 %ID/g, a tissue uptake at 1 h ([1]; Intestine) of 0.47 ± 0.21 %ID/g and a tissue uptake at 1 h ([1]; Kidneys) of 77.5 ± 13.6 %ID/g. For the same molecule, the tissue uptake at 1 h ([1]; Liver) was 0.7 ± 0.2 %ID/g, the tissue uptake at 1 h ([1]; Lung) was 1.3 ± 0.2 %ID/g and the tissue uptake at 1 h ([1]; Muscle) was 0.33 ± 0.1 %ID/g. The tissue uptake at 1 h ([1]; Pancreas) was 0.51 ± 0.03 %ID/g, the tissue uptake at 1 h ([1]; Spleen) was 9.4 ± 1.6 %ID/g and the tissue uptake at 1 h ([1]; Stomach) was 0.42 ± 0.12 %ID/g. For the same molecule, the tissue uptake at 1 h ([1]; Tumor) was 11.7 ± 1.9 %ID/g and the IC50 (PSMA) was 3.8 ± 0.3 nM.
For `O=C(O)CCC(NC(=O)NC(CCCCNC(=O)c1ccc([18F])nc1)C(=O)O)C(=O)O` (centres unmarked) [19/18F-DCFPyL, 2-(3-{1-Carboxy-5-[(6-[^18F]fluoro-pyridine-3-carbonyl)-amino]-pentyl}-ureido)-pen tanedioic acid], the Internalization (LNCaP cells [4]) is listed as 118 ± 4 % of reference, the “Biodistribution, Adrenals” value [5] is listed as 5.0 ± 4.0 %ID/g and the “Biodistribution, Blood” value [5] is listed as 0.34 ± 0.30 %ID/g. For the same molecule, the “Biodistribution, Bone” value [5] was 0.12 ± 0.02 %ID/g, the “Biodistribution, Heart” value [5] was 0.25 ± 0.09 %ID/g and the “Biodistribution, Intestine” value [5] was 0.14 ± 0.02 %ID/g. The “Biodistribution, Kidneys” value [5] was 152.4 ± 15.3 %ID/g, the “Biodistribution, Liver” value [5] was 1.7 ± 0.2 %ID/g and the “Biodistribution, Lung” value [5] was 0.46 ± 0.05 %ID/g. The “Biodistribution, Muscle” value [5] was 0.11 ± 0.02 %ID/g, the “Biodistribution, Pancreas” value [5] was 0.20 ± 0.10 %ID/g and the “Biodistribution, Spleen” value [5] was 9.6 ± 4.4 %ID/g. The “Biodistribution, Stomach” value [5] was 0.20 ± 0.03 %ID/g, the “Biodistribution, Tumor” value ([5]; LNCaP tumor) was 7.3 ± 1.5 %ID/g and the HSA-binding (human serum albumin) was 14%.
